The record followed here is article PMC6358110, “Role of SpaO in the assembly of the sorting platform of a Salmonella type III secretion system” (PLoS Pathogens, 2019).

Test [1] concerns the target FLAG-tagged SpaO^L67pBpa (Salmonella enterica Typhimurium SL1344) (UniProt P40699). Briefly: cross-linking; site-specific in vivo photo-cross-linking: pBpa in SpaO, live S. Typhimurium in PBS irradiated at 365 nm; whole cell lysates on SDS-PAGE, anti-FLAG western blot, with and without UV. A general note: A western blot detects proteins with antibodies after separation by electrophoresis.

Test [2] addresses T1, SpaO^L, full length product of spaO, N-terminal His-tagged (S. Typhimurium, UniProt P40699 1-303).
T1 construct: SpaO, full length product (SpaO^L) of the spaO gene, S. Typhimurium SPI-1 T3SS sorting platform component; The same plasmid gives both SpaO^L and the internally translated SpaO^S; also called His-tagged SpaO; source: E. coli Lemo21(DE3) harboring plasmid pSB3775, purified (Ni-NTA, Superose 6); not shown: His tag, N-terminal, kept
T1 sequence: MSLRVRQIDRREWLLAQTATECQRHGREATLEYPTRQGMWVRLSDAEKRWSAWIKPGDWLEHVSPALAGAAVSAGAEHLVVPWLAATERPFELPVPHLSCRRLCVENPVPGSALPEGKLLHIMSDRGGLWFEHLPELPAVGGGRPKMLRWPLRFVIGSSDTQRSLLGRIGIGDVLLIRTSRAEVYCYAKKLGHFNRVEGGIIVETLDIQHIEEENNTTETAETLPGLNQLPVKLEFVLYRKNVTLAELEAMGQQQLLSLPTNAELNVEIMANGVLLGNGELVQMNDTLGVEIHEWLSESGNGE
In words: SEC; N-terminal His-tagged SpaO made in E. coli, purified on Ni-NTA, run on Superose 6 10/300 GL; fractions analysed by SDS-PAGE and Coomassie; SpaO^L and SpaO^S made from one plasmid and co-purified. As to conditions: both partners purified.

Broadly, the stoichiometry N is the number of molecules, sites or subunits per partner or assembly.

As for “FLAG-tagged SpaO^L67pBpa (from UniProt P40699 1-303) (natural protein)”, the stoichiometry N in test [1] was found to be 4.

B1: SpaO^S, short form of SpaO composed of the C-terminal 101 amino acids (domain or fragment)
chain: VETLDIQHIEEENNTTETAETLPGLNQLPVKLEFVLYRKNVTLAELEAMGQQQLLSLPTNAELNVEIMANGVLLGNGELVQMNDTLGVEIHEWLSESGNGE
notes: SpaO^S, internally translated product of spaO starting at the internal GTG codon 203; the C-terminal 101 amino acids of SpaO, S. Typhimurium; Translated from an internal GTG start codon, so the first residue is probably Met rather than Val (surmised); source: E. coli Lemo21(DE3) harboring plasmid pSB3775, co-purified with His-tagged SpaO^L (Ni-NTA, Superose 6)
On to B1, for which the “stoichiometry N” value in test [2] stood at 2 SpaO^S per SpaO^L.
